Test results reported in paper PMC9636964 (Proceedings of the National Academy of Sciences of the …, 2022).
Values belong to the binder of their own block, whether it stands above or below them.

Assays:
[1] = target: T1, G3BP1 NTF2L (nuclear transport factor 2-like domain of Ras-GTPase-activating protein binding protein (human, UniProt Q13283 1-139)); experiment: ITC
[2] = target: T1, G3BP1 NTF2L (nuclear transport factor …); experiment: NMR titration

T1 sequence (Q13283 1-139): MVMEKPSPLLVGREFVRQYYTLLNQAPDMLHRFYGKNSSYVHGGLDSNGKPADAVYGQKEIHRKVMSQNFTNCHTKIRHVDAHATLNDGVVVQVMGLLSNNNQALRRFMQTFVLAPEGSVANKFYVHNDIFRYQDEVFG

Kd [1]: 1300 nM
Binder: VAQADPLVRRQRVQDLMAQMQGPYNFIQDSMLDFENQTLD [Caprin-1(347-386) peptide]

binding result [2]: binds
B1: Caprin-1(330-432) (domain or fragment)
chain: QPQAASPSVPEPHSLTPVAQADPLVRRQRVQDLMAQMQGPYNFIQDSMLDFENQTLDPAIVSAQPMNPTQNMDMPQLVCPPVHSESRLAQPNQVPVQPEATQV
modifications: 15N-labeled
